Assay results reported in article PMC11998489.
Blank lines part the entries; values can stand above or below the substance they belong to.

Legend:
Test in all cases: split reporter (BiFC, NanoBiT); mCherry BiFC (Nm and Cm fusions) in Sf9 cells transfected with a pair of plasmids (2 ug/well each); 36 h p.t.; epifluorescence microscopy; percentage of fluorescent cells in each field
[1] = target: Hse1 (BiFC fusion) (S. frugiperda)
[2] = target: Vps25 (BiFC fusion) (S. frugiperda)
[3] = target: Vps27 (BiFC fusion) (S. frugiperda)
[4] = target: Vps36 (BiFC fusion) (S. frugiperda)

percentage of fluorescent cells in BiFC [1]: 5%
Substance: Vps2B (BiFC fusion) (natural protein)

percentage of fluorescent cells in BiFC [2]: 5% | percentage of fluorescent cells in BiFC [3]: 5%
Substance: Tsg101 (BiFC fusion) (natural protein)

percentage of fluorescent cells in BiFC [1]: 5%
Substance: Chm7 (BiFC fusion) (natural protein)

percentage of fluorescent cells in BiFC [4]: 5%
Substance: Vps28 (BiFC fusion) (natural protein)
